Assay results from patent US20240034792A1 (HARBOUR BIOMED SHANGHAI, published 2024).

Target: T1, Human CD73 expressed on CHO-K1 cells (CHO-K1-hCD73) (human, UniProt P21589 27-549)
T1 construct: whole, on cells
T1 sequence (looked up): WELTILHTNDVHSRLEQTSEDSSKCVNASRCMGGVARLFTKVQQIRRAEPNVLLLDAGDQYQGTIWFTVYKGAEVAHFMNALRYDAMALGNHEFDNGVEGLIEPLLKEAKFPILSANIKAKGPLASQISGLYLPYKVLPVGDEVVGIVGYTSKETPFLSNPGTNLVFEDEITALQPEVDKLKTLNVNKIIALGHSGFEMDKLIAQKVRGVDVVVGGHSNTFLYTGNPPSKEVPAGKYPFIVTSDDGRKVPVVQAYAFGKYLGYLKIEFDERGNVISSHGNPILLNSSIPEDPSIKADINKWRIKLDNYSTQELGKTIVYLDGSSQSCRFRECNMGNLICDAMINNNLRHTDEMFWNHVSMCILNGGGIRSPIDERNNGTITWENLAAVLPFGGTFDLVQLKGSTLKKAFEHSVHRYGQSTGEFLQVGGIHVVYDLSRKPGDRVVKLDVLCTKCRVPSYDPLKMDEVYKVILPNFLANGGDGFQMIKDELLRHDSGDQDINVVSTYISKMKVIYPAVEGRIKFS
Experiment: FACS, CHO-K1-hCD73 cells
Protocol: In order to investigate the binding activity of the CD73×PD-1 bispecific antibody to human CD73 and PD-1, the binding assay at the cellular level was performed using a CHO-K1 cell strain overexpressing human CD73 or PD-1 (CHO-K1-hCD73 or CHO-K1-hPD-1). Briefly, the CHO-K1-hCD73 and CHO-K1-hPD-1 cells were digested and resuspended in an F-12K complete medium, and the cell density was adjusted to 1×10⁶ cells/mL. The cells were seeded in a 96-well V-bottom plate (Corning, #3894) at 100 μL/well, followed by the addition at 100 μL/well and centrifugation at 500 g at 4° C. for 5 min, and then the supernatant was discarded. Antibodies were 3-fold diluted to a maximum final concentration of 50 nM, and a total of 8 concentrations were set. 100 μL of the diluted antibodies was added to each well, and the cells were incubated at 4° C. for 1 h away from light. Thereafter, the cells in each well were rinsed twice with 100 μL of pre-cooled PBS, and centrifuged at 500 g at 4° C. for 5 min, and then the supernatant was discarded. Then 100 μL of a fluorescent secondary antibody (goat anti-human IgG (H+L) secondary antibody, Alexa Fluor® 488 conjugate, Invitrogen, Cat #A11013, 1:1000) was added to each well. […] Finally, the cells in each well were resuspended in 200 μL of pre-cooled PBS, and the fluorescence signal values were read using a BD FACS CANTOII.

EC50: 1.45 nM
B1: PR000846 (antibody, human IgG1, kappa, L234A L235A, V domains shown)
VH: QVQLVESGGGVAQPGRSLSLSCAASGFTFSDYGMHWVRQAPGKGLEWVALIWYDASFEYYADSVKGRFSISRDNSKNTLYLQMNSLRAEDTAVYYCVRDAQWGSRLDYWGQGTLVTVSS
VL: KIVMTQSPATLSLSPGERATLSCRASQSVSRYLAWYQQKPGQAPRLLIYDASNRATGIPARFSGSGSGTDFTLTISSLEPEDFAVYYCQQRSNWIFTFGPGTKVDIKR
notes: Parent monoclonal antibody of the CD73 end of PR003568; also called anti-CD73 IgG monoclonal antibody PR000846; anti-CD73 H2L2 antibody PR000846
